Data reported in patent publication US20180305450A1 (AstraZeneca / MedImmune, published 2018).

Experiments:
[1] = target: T1, recombinant biotinylated human PAR2 extracellular domain (residues 1-75), N-terminal AviTag, C-terminal Flag … (human, UniProt P55085 26-75, biotin on the AviTag (enzymatic biotinylation)); experiment: HTRF competition with Par0067 IgG, scFv
T1 construct: also called Bio-human-PAR2 ECD; human PAR2 ECD; not shown: N-terminal AviTag (Avidity LLC); C-terminal Flag and poly Histidine tags
Procedure: (§1) 5 μl/well of the appropriate pH 4.44 nM Par0067 IgG solution was added to all wells of the relevant assay plate (pH 7.4 and pH 6.0).
(§2) Test scFv Preparation/Addition: [0172] a) For parallel single point HTS of crude un-purified bacterial lysate scFv samples at both pH 7.4 and pH 6.0 samples were first pre-diluted to 40% of their neat concentration using either pH 7.4 or pH 6.0 assay buffer as appropriate. Subsequently 5 μl of 40% pre-diluted sample was then transferred into the appropriate assay (pH 7.4 or pH 6.0) in order to give a final assay sample concentration of 10.0% (in the 20 μl final assay volume). The parent Par0067 scFv was included in all HTS experiments as a control as were specific pH dependent antibodies as those became available (for benchmarking). […] Duplicate 11 point 1:3 serial dilutions then were prepared on 384 well polypropylene Greiner plates in each of the two assay buffers (pH 7.4 & 6.0). 5 μl per well of each serial dilution was transferred from the relevant pH scFv dilution plate to the corresponding assay plate (pH 7.4 and pH 6.0). 5 μl of the appropriate pH assay buffer was added to the total and non-specific wells. The parent Par0067 purified scFv was included in all multipoint dose response IC₅₀ experiments as a control as were specific pH dependent purified scFv as those became available (for benchmarking).
(§3) For multipoint dose response curves % Specific Binding values were plotted versus test purified antibody concentration (scFv or IgG). IC₅₀ values were determined via a sigmoidal dose response inhibition variable slope curve fit (4 parameter logistic equation) using Graphpad Prism Software.

[2] = target: T1, recombinant biotinylated human PAR2 …; experiment: HTRF competition with Par0067 IgG, pH 6.0, scFv
Procedure: as §1, §2, §3

[3] = target: T1, recombinant biotinylated human PAR2 …; experiment: HTRF competition with Par0067 IgG, pH 7.4, scFv
Procedure: as §1, §2, §3

T1 sequence (P55085 26-75): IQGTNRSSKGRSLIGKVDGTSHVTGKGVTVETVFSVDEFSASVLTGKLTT

| Binder | Fold IC50 (pH 6.0 v pH 7.4) [1] | Fold IC50 pH 7.4 (Variant v Par0067) [1] | IC50 [2] | IC50 [3] |
| --- | --- | --- | --- | --- |
| PaB670070 scFv (scFv, V domains shown, purified scFv; also called ZZ1KXE-D06) VH: EVQLLESGGGLVQPGGSLRLSCAASGFTFSSYAMNWVRQAPGKGLEWVSTISYSGSLISYADSVKGRFTISRDNSKNTLYLQMNSLRAEDTAVYYCARINNDPMDVWGQGTLVTVSS VL: SIELTQPPSVSVSPGQTASITCSGDNLGKKYVQWYQQKPGQSPVLVIYDDSNRPSGIPERFSGSNSGNTATLTISGTQAMDEADYYCQTWDHNHHTGHTNVFGGGTKLTVL | 4.5 fold | 18.3 fold | 270 nM | 60.4 nM |
| PaB670075 scFv (scFv, V domains shown, purified scFv; also called ZZ1NHH-A05) VH: EVQLLESGGGLVQPGGSLRLSCAASGFTFSSYAMNWVRQAPGKGLEWVSTISYSGSLISYADSVKGRFTISRDNSKNTLYLQMNSLRAEDTAVYYCARINNDPMDVWGQGTLVTVSS VL: SIELTQPPSVSVSPGQTASITCSGDNLGKKYVQWYQQKPGQSPVLVIYDDSNRPSGIPERFSGSNSGNTATLTISGTQAMDEADYYCQHWDGNHHHGETNHFGGGTKLTVL | 5.9 fold | 30.8 fold | 603 nM | 102 nM |
| PaB670066 scFv (scFv, V domains shown, purified scFv; also called ZZ1KX6-D05) VH: EVQLLESGGGLVQPGGSLRLSCAASGFTFSSYAMNWVRQAPGKGLEWVSTISYSGSLISYADSVKGRFTISRDNSKNTLYLQMNSLRAEDTAVYYCARINNDPMDVWGQGTLVTVSS VL: SIELTQPPSVSVSPGQTASITCSGDNLGKKYVQWYQQKPGQSPVLVIYDDSNRPSGIPERFSGSNSGNTATLTISGTQAMDEADYYCHHWHGNHHTGETNHFGGGTKLTVL | 9.3 fold | 15.8 fold | 487 nM | 52.2 nM |
| PaB670071 scFv (scFv, V domains shown, purified scFv; also called ZZ1L3F-A02) VH: EVQLLESGGGLVQPGGSLRLSCAASGFTFSSYAMNWVRQAPGKGLEWVSTISYSGSLISYADSVKGRFTISRDNSKNTLYLQMNSLRAEDTAVYYCARINNDPMDVWGQGTLVTVSS VL: SIELTQPPSVSVSPGQTASITCSGDNLGKKYVQWYQQKPGQSPVLVIYDDSNRPSGIPERFSGSNSGNTATLTISGTQAMDEADYYCHTWHHHHHTGEHNHFGGGTKLTVL | 4.2 fold | 30.7 fold | 425 nM | 101 nM |
| PaB670073 scFv (scFv, V domains shown, purified scFv; also called ZZ1L3F-H03) VH: EVQLLESGGGLVQPGGSLRLSCAASGFTFSSYAMNWVRQAPGKGLEWVSTISYSGSLISYADSVKGRFTISRDNSKNTLYLQMNSLRAEDTAVYYCARINNDPMDVWGQGTLVTVSS VL: SIELTQPPSVSVSPGQTASITCSGDNLGKKYVQWYQQKPGQSPVLVIYDDSNRPSGIPERFSGSNSGNTATLTISGTQAMDEADYYCQHWHGHPHHGEHNVFGGGTKLTVL | 5.9 fold | 21.8 fold | 428 nM | 72.1 nM |
| PaB670068 scFv (scFv, V domains shown, purified scFv; also called ZZ1KXE-B01) VH: EVQLLESGGGLVQPGGSLRLSCAASGFTFSSYAMNWVRQAPGKGLEWVSTISYSGSLISYADSVKGRFTISRDNSKNTLYLQMNSLRAEDTAVYYCARINNDPMDVWGQGTLVTVSS VL: SIELTQPPSVSVSPGQTASITCSGDNLGKKYVQWYQQKPGQSPVLVIYDDSNRPSGIPERFSGSNSGNTATLTISGTQAMDEADYYCQTWDGHHTHGEHHVFGGGTKLTVL | 5.8 fold | 23.6 fold | 448 nM | 77.8 nM |
| PaB670064 scFv (scFv, V domains shown, purified scFv; also called ZZ1KX6-B09) VH: EVQLLESGGGLVQPGGSLRLSCAASGFTFSSYAMNWVRQAPGKGLEWVSTISYSGSLISYADSVKGRFTISRDNSKNTLYLQMNSLRAEDTAVYYCARINNDPMDVWGQGTLVTVSS VL: SIELTQPPSVSVSPGQTASITCSGDNLGKKYVQWYQQKPGQSPVLVIYDDSNRPSGIPERFSGSNSGNTATLTISGTQAMDEADYYCHTWHHNPHTGETNHFGGGTKLTVL | 4.3 fold | 20.3 fold | 290 nM | 67.1 nM |

The next binders have a lower IC50 [2] than those just listed; values first:

| Fold IC50 (pH 6.0 v pH 7.4) [1] | Fold IC50 pH 7.4 (Variant v Par0067) [1] | IC50 [2] | IC50 [3] | Binder |
| --- | --- | --- | --- | --- |
| 2.7 fold | 4.7 fold | 41.8 nM | 15.4 nM | PaB670010 scFv (scFv, V domains shown, purified scFv; also called ZZ1DRB-B08) VH: EVQLLESGGGLVQPGGSLRLSCAASGFTFSSYAMNWVRQAPGKGLEWVSTISYSGSLIHYADSVKGRFTISRDNSKNTLYLQMNSLRAEDTAVYYCARINNDPMDVWGQGTLVTVSS VL: SIELTQPPSVSVSPGQTASITCSGDNLGKKYVQWYQQKPGQSPVLVIYDDSNRPSGIPERFSGSNSGNTATLTISGTQAMDEADYYCQTWDGNPTTGETNVFGGGTKLTVL |
| 7.4 fold | 3 fold | 72.5 nM | 9.8 nM | PaB670045 scFv (scFv, V domains shown, purified scFv; also called ZZ1KX3-F01) VH: EVQLLESGGGLVQPGGSLRLSCAASGFTFSSYAMNWVRQAPGKGLEWVSTISYSGSLISYADSVKGRFTISRDNSKNTLYLQMNSLRAEDTAVYYCARIHHDPMDVWGQGTLVTVSS VL: SIELTQPPSVSVSPGQTASITCSGDNLGKKYVQWYQQKPGQSPVLVIYDDSNRPSGIPERFSGSNSGNTATLTISGTQAMDEADYYCQTWDGNPTTGETNVFGGGTKLTVL |
| 2.5 fold | 1.7 fold | 14.2 nM | 5.6 nM | PaB670034 scFv (scFv, V domains shown, purified scFv; also called ZZ1IGF-B11) VH: EVQLLESGGGLVQPGGSLRLSCAASGFTFSSYAMNWVRQAPGKGLEWVSTISYSGSLISYADSVKGRFTISRDNSKNTLYLQMNSLRAEDTAVYYCARINNDPMDVWGQGTLVTVSS VL: SIELTQPPSVSVSPGQTASITCSGDNLGKKYVQWYQQKPGQSPVLVIYDDSNRPSGIPERFSGSNSGNTATLTISGTQAMDEADYYCQTWDGNPTHGETNVFGGGTKLTVL |
| 9.6 fold | 4.4 fold | 139 nM | 14.5 nM | PaB670048 scFv (scFv, V domains shown, purified scFv; also called ZZ1KX4-E11) VH: EVQLLESGGGLVQPGGSLRLSCAASGFTFSSYAMNWVRQAPGKGLEWVSTISYSGSLISYADSVKGRFTISRDNSKNTLYLQMNSLRAEDTAVYYCARIHHDPMDHWGQGTLVTVSS VL: SIELTQPPSVSVSPGQTASITCSGDNLGKKYVQWYQQKPGQSPVLVIYDDSNRPSGIPERFSGSNSGNTATLTISGTQAMDEADYYCQTWDGNPTTGETNVFGGGTKLTVL |
| 3.3 fold | 1.7 fold | 18.5 nM | 5.6 nM | PaB670020 scFv (scFv, V domains shown, purified scFv; also called ZZ1IGD-D05) VH: EVQLLESGGGLVQPGGSLRLSCAASGFTFSSYAMNWVRQAPGKGLEWVSTISYSGSLISYADSVKGRFTISRDNSKNTLYLQMNSLRAEDTAVYYCARINHDPMDVWGQGTLVTVSS VL: SIELTQPPSVSVSPGQTASITCSGDNLGKKYVQWYQQKPGQSPVLVIYDDSNRPSGIPERFSGSNSGNTATLTISGTQAMDEADYYCQTWDGNPTTGETNVFGGGTKLTVL |
| 7.9 fold | 4.4 fold | 113 nM | 14.4 nM | PaB670067 scFv (scFv, V domains shown, purified scFv; also called ZZ1KXE-A05) VH: EVQLLESGGGLVQPGGSLRLSCAASGFTFSSYAMNWVRQAPGKGLEWVSTISYSGSLISYADSVKGRFTISRDNSKNTLYLQMNSLRAEDTAVYYCARINNDPMDVWGQGTLVTVSS VL: SIELTQPPSVSVSPGQTASITCSGDNLGKKYVQWYQQKPGQSPVLVIYDDSNRPSGIPERFSGSNSGNTATLTISGTQAMDEADYYCHTWHHHPTHGEHNVFGGGTKLTVL |
